The source of these data is the Immune Epitope Database (IEDB).

Among the targets are HLA-A*03:01; HLA-A*11:01; HLA-A*31:01; HLA-A*68:01; HLA-A*33:01.
Holding throughout (assay): IEDB peptide-MHC binding, purified MHC/competitive/radioactivity; filed as Kd, often an IC50 or EC50 that approximates it; ≥ and ≤ were set here for values at or beyond the usual limits of such assays
The mark [1] stands for this setting: source organism: Vaccinia virus WR.
The mark [2] stands for this setting: source organism: Vaccinia virus Copenhagen.
The mark [3] stands for this setting: source organism: SARS coronavirus Tor2.
The mark [4] stands for this setting: source organism: Mammarenavirus guanaritoense.
[5] abbreviates: source organism: Dengue virus 1 Brazil/97-11/1997.
[6] abbreviates: source organism: Dengue virus 4 Philippines/H241/1956.
The mark [7] stands for this setting: source organism: Dengue virus 1 Singapore/S275/1990.

For orientation: Kd means the equilibrium constant for the complex coming apart. Take DFDNLIGVR: the dissociation constant (Kd) is not below 78000 nM with HLA-A*03:01 (setting [1]); not below 77900 nM with HLA-A*11:01 (setting [1]); 8030 nM with HLA-A*31:01 (setting [1]); 10700 nM in the assay with HLA-A*68:01 (setting [1]); 87.1 nM with HLA-A*33:01 (setting [1]).
For the sequence NTIVFGIYK, the Kd in the assay with HLA-A*03:01 (setting [2]) was not below 28900 nM; with HLA-A*11:01 (setting [2]), 1080 nM; with HLA-A*31:01 (setting [2]), not below 33400 nM; with HLA-A*68:01 (setting [2]), 1110 nM; with HLA-A*33:01 (setting [2]), not below 77700 nM.
For FSLESDSIK, the Kd in the assay with HLA-A*03:01 (setting [1]) was found to be 1570 nM; in the assay with HLA-A*11:01 (setting [1]) it was 565 nM; with HLA-A*31:01 (setting [1]), 960 nM; with HLA-A*68:01 (setting [1]) it was 187 nM; with HLA-A*33:01 (setting [1]), 2220 nM.
With YLSTFNMWR, the Kd with HLA-A*03:01 (setting [1]) came out at 201 nM; with HLA-A*11:01 (setting [1]), 666 nM; with HLA-A*31:01 (setting [1]) it was 64.7 nM; with HLA-A*68:01 (setting [1]) it was 3.42 nM; in the assay with HLA-A*33:01 (setting [1]), 94.5 nM.
The like results for IISEEYLSK were, in that order, 103 nM, 27 nM, 10100 nM, 7850 nM and not below 59300 nM.
On to TSMMVILPDK, for which the Kd with HLA-A*03:01 (setting [1]) was 141 nM; with HLA-A*11:01 (setting [1]), 1.8 nM; with HLA-A*31:01 (setting [1]) it was 455 nM; in the assay with HLA-A*68:01 (setting [1]) it was 27 nM; with HLA-A*33:01 (setting [1]), not below 23000 nM.
Regarding EVGSIRCVKY, the Kd is not below 70100 nM with HLA-A*03:01 (setting [1]); not below 69800 nM in the assay with HLA-A*11:01 (setting [1]); not below 47000 nM with HLA-A*31:01 (setting [1]); 1510 nM with HLA-A*68:01 (setting [1]); not below 47800 nM in the assay with HLA-A*33:01 (setting [1]).
For YVKSPKFSK, the equilibrium dissociation constant (Kd) turned out to be 6980 nM with HLA-A*03:01 (setting [3]); 259 nM with HLA-A*11:01 (setting [3]); 2320 nM in the assay with HLA-A*31:01 (setting [3]); 65.5 nM with HLA-A*68:01 (setting [3]); 7520 nM in the assay with HLA-A*33:01 (setting [3]).
As for LGMMVLKIVR, in the assay with HLA-A*33:01 (source organism: Dengue virus 2 Jamaica/1409/1983), the Kd stood at 1910 nM.
Consider STCFKLMLK, for which the Kd was 0.808 nM with HLA-A*03:01 (setting [3]); 0.553 nM with HLA-A*11:01 (setting [3]); 26.5 nM in the assay with HLA-A*31:01 (setting [3]); 1.65 nM in the assay with HLA-A*68:01 (setting [3]); 1450 nM with HLA-A*33:01 (setting [3]).
Consider KTAVNMLTH, for which the dissociation constant Kd in the assay with HLA-A*03:01 (setting [4]) is 10.1 nM; with HLA-A*11:01 (setting [4]) it was 216 nM; with HLA-A*31:01 (setting [4]), 45.3 nM; with HLA-A*68:01 (setting [4]), not below 44800 nM; with HLA-A*33:01 (setting [4]) it was not below 77700 nM.
In the case of ATKSEHTGR, in the assay with HLA-A*31:01 (source organism: Dengue virus 3 Martinique/1243/1999), the Kd was found to be 1.85 nM.
As for TILDDNLYK, the Kd with HLA-A*03:01 (setting [1]) is 390 nM; in the assay with HLA-A*11:01 (setting [1]), 14.8 nM; with HLA-A*31:01 (setting [1]), not below 50300 nM; with HLA-A*68:01 (setting [1]), 1180 nM; with HLA-A*33:01 (setting [1]), not below 77700 nM.
Turning to AIGTSITQK, the values for the Kd with HLA-A*03:01 (setting [5]) and with HLA-A*11:01 (setting [5]) were 9.33 nM and 60.9 nM, respectively.
With AGLAFSLMK, the dissociation constant Kd with HLA-A*11:01 (setting [5]) came to 11.2 nM.
Turning to AVLDMCAALK, the Kd turned out to be 12.9 nM with HLA-A*03:01 (setting [3]); 6.06 nM in the assay with HLA-A*11:01 (setting [3]); 80.4 nM with HLA-A*31:01 (setting [3]); 117 nM with HLA-A*68:01 (setting [3]); 756 nM in the assay with HLA-A*33:01 (setting [3]).
For KSKSFNHVLK, in that order: 1.73 nM, 21.6 nM, 6.54 nM, 3660 nM and not below 70000 nM.
Take LSSRATWAK: the dissociation constant (Kd) with HLA-A*11:01 (setting [6]) was 56.5 nM.
Take ILARWGSFK: the dissociation constant Kd in the assay with HLA-A*03:01 (setting [7]) is 2.13 nM; in the assay with HLA-A*11:01 (setting [7]), 77.8 nM.
For the sequence ITTDDLVKSY, the Kd is not below 70100 nM with HLA-A*03:01 (setting [1]); 11000 nM with HLA-A*11:01 (setting [1]); not below 70000 nM with HLA-A*31:01 (setting [1]); 1020 nM with HLA-A*68:01 (setting [1]); not below 70000 nM with HLA-A*33:01 (setting [1]).
As for QVAINQVRR, in the assay with HLA-A*68:01 (setting [5]), the dissociation constant Kd is 104 nM.
In the case of KFTILEYLY, the Kd was found to be 7090 nM with HLA-A*03:01 (setting [1]); 2180 nM in the assay with HLA-A*11:01 (setting [1]); 1030 nM with HLA-A*31:01 (setting [1]); 808 nM with HLA-A*68:01 (setting [1]); 9060 nM with HLA-A*33:01 (setting [1]).
For the sequence YMIGQTGIQR, the Kd was found to be 98.3 nM in the assay with HLA-A*68:01 (setting [6]) and 79.2 nM with HLA-A*33:01 (setting [6]).
On to SFSNTIQSY, for which the Kd with HLA-A*03:01 (setting [1]) is 11700 nM; with HLA-A*11:01 (setting [1]), 4300 nM; with HLA-A*31:01 (setting [1]) it was not below 77900 nM; in the assay with HLA-A*68:01 (setting [1]), 10400 nM; with HLA-A*33:01 (setting [1]), not below 77700 nM.
With QLPKRGVRVR, the dissociation constant Kd in the assay with HLA-A*03:01 (setting [1]) is not below 22600 nM; in the assay with HLA-A*11:01 (setting [1]), not below 47000 nM; with HLA-A*31:01 (setting [1]), 5380 nM; with HLA-A*68:01 (setting [1]), not below 20100 nM; with HLA-A*33:01 (setting [1]), not below 70000 nM.
For WLSMTDEMR, in that order: not below 78000 nM, not below 46300 nM, 1790 nM, 34.4 nM and 6280 nM.
IQTSVNTVVR: the dissociation constant (Kd) was not below 39700 nM in the assay with HLA-A*03:01 (setting [1]); 14200 nM with HLA-A*11:01 (setting [1]); 363 nM with HLA-A*31:01 (setting [1]); 1430 nM in the assay with HLA-A*68:01 (setting [1]); not below 29900 nM with HLA-A*33:01 (setting [1]).
